Reference: PMC12051234, “NrdR in Streptococcus and Listeria spp.: DNA Helix Phase Dependence of the Bacterial Ribonucleotide Reductase Repressor”

T1: ScoNrdR (Streptomyces coelicolor, UniProt O69980 1-182)
T1 sequence: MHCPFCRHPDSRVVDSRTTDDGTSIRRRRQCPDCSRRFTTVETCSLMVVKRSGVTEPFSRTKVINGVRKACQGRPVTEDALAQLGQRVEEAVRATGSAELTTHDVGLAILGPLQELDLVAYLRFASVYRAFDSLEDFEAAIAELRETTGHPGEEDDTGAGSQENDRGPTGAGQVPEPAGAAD

T2: LmoNrdR (Listeria monocytogenes serotype 1/2a …, UniProt Q8Y6W9 1-154)
T2 sequence: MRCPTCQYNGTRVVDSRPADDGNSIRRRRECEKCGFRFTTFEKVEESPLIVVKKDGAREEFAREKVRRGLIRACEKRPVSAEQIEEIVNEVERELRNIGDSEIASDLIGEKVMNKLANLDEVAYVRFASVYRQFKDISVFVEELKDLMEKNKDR

T3: EcoNrdR (Escherichia coli, UniProt P0A8D0 1-149)
T3 sequence: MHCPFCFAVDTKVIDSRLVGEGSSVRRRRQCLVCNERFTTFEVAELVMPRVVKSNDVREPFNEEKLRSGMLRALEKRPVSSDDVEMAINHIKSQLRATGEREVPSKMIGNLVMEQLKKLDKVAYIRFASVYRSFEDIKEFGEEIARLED

T4: SpnNrdR (Streptococcus pneumoniae TIGR4, UniProt P67318 1-157)
T4 sequence: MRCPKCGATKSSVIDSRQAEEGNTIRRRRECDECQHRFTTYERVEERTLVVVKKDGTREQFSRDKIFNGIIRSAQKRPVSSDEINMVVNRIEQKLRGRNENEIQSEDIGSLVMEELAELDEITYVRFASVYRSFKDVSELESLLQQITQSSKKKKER

B1: Synt 17 bp spacer (dsDNA)
DNA 1: GCCAAACACAACATCTAGTGGTTGGATAGCGTGAAGGCACACAACATCTAGTGGACCTC
DNA 2: GAGGTCCACTAGATGTTGTGTGCCTTCACGCTATCCAACCACTAGATGTTGTGTTTGGC
B2: Synt 12 bp spacer (dsDNA)
DNA 1: GCCAAACACAACATCTAGTGGTTGGATAGGAGCACACAACATCTAGTGGACCTC
DNA 2: GAGGTCCACTAGATGTTGTGTGCTCCTATCCAACCACTAGATGTTGTGTTTGGC
B3: Synt 15 bp spacer (dsDNA)
DNA 1: GCCAAACACAACATCTAGTGGTTGGATAGCGTGAGCACACAACATCTAGTGGACCTC
DNA 2: GAGGTCCACTAGATGTTGTGTGCTCACGCTATCCAACCACTAGATGTTGTGTTTGGC
B4: Synt 26 bp spacer (dsDNA)
DNA 1: GCCAAACACAACATCTAGTGGTTGGATAGCGTGAAGTTCCACCTAGCACACAACATCTAGTGGACCTC
DNA 2: GAGGTCCACTAGATGTTGTGTGCTAGGTGGAACTTCACGCTATCCAACCACTAGATGTTGTGTTTGGC
B5: Synt 27 bp spacer (dsDNA)
DNA 1: GCCAAACACAACATCTAGTGGTTGGATAGCGTGAAGTTACCACCTAGCACACAACATCTAGTGGACCTC
DNA 2: GAGGTCCACTAGATGTTGTGTGCTAGGTGGTAACTTCACGCTATCCAACCACTAGATGTTGTGTTTGGC
B6: Synt 14 bp spacer (dsDNA)
DNA 1: GCCAAACACAACATCTAGTGGTTGGATAGCTGAGCACACAACATCTAGTGGACCTC
DNA 2: GAGGTCCACTAGATGTTGTGTGCTCAGCTATCCAACCACTAGATGTTGTGTTTGGC
B7: Synt 20 bp spacer (dsDNA)
DNA 1: GCCAAACACAACATCTAGTGGTTGGATAGCGTGACAGTAGCACACAACATCTAGTGGACCTC
DNA 2: GAGGTCCACTAGATGTTGTGTGCTACTGTCACGCTATCCAACCACTAGATGTTGTGTTTGGC
B8: Synt 13 bp spacer (dsDNA)
DNA 1: GCCAAACACAACATCTAGTGGTTGGATAGTGAGCACACAACATCTAGTGGACCTC
DNA 2: GAGGTCCACTAGATGTTGTGTGCTCACTATCCAACCACTAGATGTTGTGTTTGGC
B9: Synt 18 bp spacer (dsDNA)
DNA 1: GCCAAACACAACATCTAGTGGTTGGATAGCGTGAAGTGCACACAACATCTAGTGGACCTC
DNA 2: GAGGTCCACTAGATGTTGTGTGCACTTCACGCTATCCAACCACTAGATGTTGTGTTTGGC
B10: Synt 19 bp spacer (dsDNA)
DNA 1: GCCAAACACAACATCTAGTGGTTGGATAGCGTGAAGTAGCACACAACATCTAGTGGACCTC
DNA 2: GAGGTCCACTAGATGTTGTGTGCTACTTCACGCTATCCAACCACTAGATGTTGTGTTTGGC
B11: Synt 25 bp spacer (dsDNA)
DNA 1: GCCAAACACAACATCTAGTGGTTGGATAGCGTGAAGTTCACCTAGCACACAACATCTAGTGGACCTC
DNA 2: GAGGTCCACTAGATGTTGTGTGCTAGGTGAACTTCACGCTATCCAACCACTAGATGTTGTGTTTGGC
B12: Synt 16 bp spacer (dsDNA)
DNA 1: GCCAAACACAACATCTAGTGGTTGGATAGCGTGAAGCACACAACATCTAGTGGACCTC
DNA 2: GAGGTCCACTAGATGTTGTGTGCTTCACGCTATCCAACCACTAGATGTTGTGTTTGGC
B13: Synt 24 bp spacer (dsDNA)
DNA 1: GCCAAACACAACATCTAGTGGTTGGATAGCGTGAATTCACCTAGCACACAACATCTAGTGGACCTC
DNA 2: GAGGTCCACTAGATGTTGTGTGCTAGGTGAATTCACGCTATCCAACCACTAGATGTTGTGTTTGGC
B14: Eco nrdHIEF box 1 duplicated (dsDNA)
DNA 1: GTCTCTTGCTATATATTGTGTGGTTGAATCTTTTTTTTGCTATATATTGTGTCTCTG
DNA 2: CAGAGACACAATATATAGCAAAAAAAAGATTCAACCACACAATATATAGCAAGAGAC
B15: Eco nrdHIEF box 2 duplicated (dsDNA)
DNA 1: GTCTCCAACTACATCTAGTATGGTTGAATCTTTTTTCAACTACATCTAGTATCTCTG
DNA 2: CAGAGATACTAGATGTAGTTGAAAAAAGATTCAACCATACTAGATGTAGTTGGAGAC
B16: Sth nrdDG (16 bp spacer) (dsDNA)
DNA 1: TCGAAAATCAATATATAGTGGTTGAGATAAAAATATACCACAATATATTGATTTTCCT
DNA 2: AGGAAAATCAATATATTGTGGTATATTTTTATCTCAACCACTATATATTGATTTTCGA
B17: Sth nrdHEF (16 bp spacer) (dsDNA)
DNA 1: TCAAAACACAAGATATAGGGTTGTGTTTCAATACTAAACACAAAATATTGTATTCCTT
DNA 2: AAGGAATACAATATTTTGTGTTTAGTATTGAAACACAACCCTATATCTTGTGTTTTGA

molecular target: T1, ScoNrdR; assay: MST; dATP + ATP; MST, temperature not stated. Lmo: 25 mM Bis-Tris propane pH 6.5, 100 mM KCl, 5 mM MgCl2, 5% glycerol, 1 mM DTT, 0.05% Tween 20, one nucleotide 1 mM or two at 0.5 mM each; Spn: 25 mM HEPES pH 7.2, 250 mM NaCl, 2.5 mM MgCl2, 15% glycerol, 2 mM DTT, 0.1 mg/mL BSA, 0.05% Tween 20, 0.5 mM ATP and/or dATP; Eco: 25 mM Tris pH 8.5, 100 mM NaCl, 7 mM MgCl2, 1 mM DTT, 0.025% Tween 20, 1 mM ATP + 1 mM dATP; …; details: protein: recombinant; chain copies: 4; label: 5'-Cy5 sense; blunt

Binder | Kd [nM]
B1 | 21 ± 7
B2 | 580 ± 79
B3 | 45 ± 13
B4 | 4400 ± 355
B5 | 3500 ± 626
B6 | 154 ± 28
B7 | 2190 ± 449
B8 | 158 ± 19
B9 | 476 ± 80
B10 | 1660 ± 221
B11 | 4050 ± 272
B12 | 28 ± 7
B13 | 763 ± 104

molecular target: T2, LmoNrdR; assay: as above; details: protein: recombinant; tags: C-terminal His6; chain copies: 4; label: 5'-Cy5 sense; blunt

Binder | Kd [nM]
B1 | 1 ± 0.4
B2 | 37 ± 6
B3 | 1 ± 0.2
B5 | 18 ± 6
B6 | 2 ± 0.5
B7 | 122 ± 10
B8 | 11 ± 1.8
B9 | 3 ± 0.6
B10 | 51 ± 7
B11 | 25 ± 12
B12 | 1 ± 0.4
B13 | 26 ± 3

molecular target: T3, EcoNrdR; assay: as above; details: protein: recombinant; chain copies: 4; label: 5'-Cy5 sense; blunt

Binder | Kd [nM]
B1 | 45 ± 6
B2 | 1380 ± 309
B4 | 24 ± 7
B5 | 27 ± 8
B6 | 169 ± 27
B7 | 3320 ± 540
B14 | 213 ± 40
B8 | 117 ± 24
B9 | 66 ± 12
B10 | 601 ± 113
B11 | 326 ± 44
B12 | 82 ± 22
B13 | 141 ± 34
B15 | 99 ± 33

molecular target: T4, SpnNrdR; assay: as above; details: protein: recombinant; tags: C-terminal His6; chain copies: 4; label: 5'-Cy5 sense; blunt

Binder | Kd [nM]
B1 | 340 ± 83
B2 | 5060 ± 511
B16 | 1150 ± 320
B3 | 55 ± 14
B4 | 2910 ± 225
B5 | 3190 ± 238
B17 | 800 ± 250
B6 | 699 ± 109
B7 | 12300 ± 388
B8 | 3940 ± 290
B9 | 6600 ± 536
B10 | 11600 ± 340
B11 | 4370 ± 343
B12 | 41 ± 11
B13 | 9200 ± 374
